Data on 14 molecules can be found in patent US20100081612A1 (GENERAL HOSPITAL, published 2010).

Like-named read-outs stand apart in the source and are kept apart here. Where no end group is shown, it is not given here. [ ]: non-standard residue; d: D form. Gly(1-amidinopiperidin-4-yl) = N=C(N)N1CCC([C@H](N)C(=O)O)CC1; Cha = N[C@@H](CC1CCCCC1)C(=O)O; Nle = CCCC[C@H](N)C(=O)O Some results are limits rather than exact numbers.

One test has as its target PTHR-delNt (human) (UniProt Q03431). Put plainly: competition binding, COS-7 membranes, 125I-[Aib1,3,M]PTH(1-15) tracer.
Test [1] concerns the target T1, wild-type human PTHR (human, UniProt Q03431 27-593).
T1 construct: whole, on cells; also called PTHR-WT; intact PTHR
T1 sequence (looked up): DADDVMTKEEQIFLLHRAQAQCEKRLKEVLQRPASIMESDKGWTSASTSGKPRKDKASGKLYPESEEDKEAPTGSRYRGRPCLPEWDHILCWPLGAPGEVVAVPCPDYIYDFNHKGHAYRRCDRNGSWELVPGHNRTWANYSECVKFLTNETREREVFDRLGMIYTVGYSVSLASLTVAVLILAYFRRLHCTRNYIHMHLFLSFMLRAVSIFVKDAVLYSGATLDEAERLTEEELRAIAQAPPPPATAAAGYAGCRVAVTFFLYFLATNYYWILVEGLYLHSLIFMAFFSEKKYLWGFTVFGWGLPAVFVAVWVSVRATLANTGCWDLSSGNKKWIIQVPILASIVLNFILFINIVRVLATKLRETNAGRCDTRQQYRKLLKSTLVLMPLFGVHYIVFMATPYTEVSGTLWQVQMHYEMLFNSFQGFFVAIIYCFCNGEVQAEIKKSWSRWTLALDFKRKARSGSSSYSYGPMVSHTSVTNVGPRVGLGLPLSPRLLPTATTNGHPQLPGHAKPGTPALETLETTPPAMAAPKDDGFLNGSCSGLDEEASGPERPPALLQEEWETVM
The test is described as follows: competition binding, HKRK-B7 cells, 125I-PTH(1-34) tracer. Here is the method:
(§1) Receptor binding—Binding to the wild-type human PTHR in intact HKRK-B7 cells and ROS 17/2.8 cells was assessed using ¹²⁵I-PTH(1-34) as a tracer radioligand, as described (Shimizu, M., (2001) Endocrinology 142:3068-3074). In brief, the cells in 24-well plates (about 500,000 cells per well) were incubated in binding buffer containing radioligand (about 100,000 cpm per well) with or without unlabeled peptide ligand (3×10⁻⁹ to 1×10⁻⁵ M) for four hours at 15° C. The binding mixture was then removed by aspiration, the cells were rinsed three times with binding buffer, lysed in 1 M NaOH, and the entire lysate was counted for gamma-irradiation in a gamma counter. Binding to PTHR-delNt in COS-7 cell membranes was assessed in 96-well, vacuum filtration plates (Multiscreen-Durapore HV, […], Millipore Corp., Millford, Mass.) using ¹²⁵I-[Aib^{1,3},M]PTH(1-15)NH₂ as a tracer radioligand, as described (Dean, T., (2006) Mol Endocrinol 20:931-942). In brief, cell membranes (20 μg/well) were incubated in membrane binding buffer containing radioligand (30,000 cpm/well) with or without unlabeled peptide ligand (3×10⁻⁹ to 1×10⁻⁵ M) for 90 minutes at 21° C. The plates were then subject to rapid vacuum filtration, the filters were washed once with buffer, detached from the plate and counted for gamma-irradiation in a gamma counter. Non-specific binding was defined as the binding observed in the presence of 1×10⁻⁶ M PTH(1-31)NH₂ for HKRK-B7 and ROS 17/2.8 cells, and 1×10⁻⁶ M [Aib^{1,3},M]PTH(1-15)NH₂ for PTHR-delNt. Specifically bound radioactivity was calculated as a percentage of the radioactivity specifically bound in the absence of competing ligand.
Alanine-Scan of the PTH(17-31) domain—Each residue in the (17-31) region of PTH(1-31)NH₂ was individually replaced with alanine and the effects of the substitutions on binding to the intact human PTHR stably expressed in HKRK-B7 cells was assessed. Competition binding studies were performed using whole cells and ¹²⁵I-PTH(1-34) (¹²⁵I-[Nle^{8,21},Tyr³⁴]ratPTH(1-34)NH₂) as a tracer radioligand.

In test [2] the target is T1, wild-type human PTHR. The test is described as above. This is another data set of the same source.
The target of test [3] is T1, wild-type human PTHR. The description is as above. The method, then: as §1
Cyclohexylalanine and glutamate substitutions were introduced into [Ala¹,Arg¹⁹]hPTH(1-31)NH₂. The helical residue values were calculated from [θ]₂₂₂, the mean-residue elipticities observed in the CD spectra at 222 nm. Competition binding studies were performed in intact HKRK-B7 cells stably transfected with the hPTHR using ¹²⁵I-[Nle^{8,21},Tyr³⁴]rPTH(1-34)NH ₂ tracer radioligand, and in membranes prepared from COS-7 cells transiently transfected with hPTHR-delNt and a negative-dominant Gαs using ¹²⁵I-[Aib^{1,3},Nle⁸,Gln¹⁰,Har¹¹,Ala¹²,Trp¹⁴,Tyr¹⁵]rPTH(1-15)NH₂ tracer radioligand. Binding values (nM) are means (+/−s.e.m.) of data from the number of experiments indicated (n).
The source holds these as a separate data set.

In the case of SVSEIQLMHNLGKHLNSMEXVEWLRKKLQDV (citrulline (Cit) at 20; C-terminal amide) [PTH(1-31)NH2 Arg^20→Cit], in the test with PTHR-delNt (human), the IC50 came out at 10600 nM and the fold difference of IC50 from PTH(1-31)NH2 is under 4 fold. The same molecule registered a concentration for half-maximal inhibition (IC50) with wild-type human PTHR [1] of 11900 nM. Besides, in the test with wild-type human PTHR [2], the “fold reduction in binding affinity vs PTH(1-31)NH2” value (“fold reduction … vs PTH(1-31)NH2” for short) is about 200 fold.

B1: [Ala^1,Arg^19]hPTH(1-31)NH2 Ser^17→Cha (peptide)
peptide: AVSEIQLMHNLGKHLN[Cha]MRRVEWLRKKLQDV-NH2
modifications: N-terminus assumed
SMILES: CC[C@H](C)[C@H](NC(=O)[C@H](CCC(=O)O)NC(=O)[C@H](CO)NC(=O)[C@@H](NC(=O)[C@H](C)N)C(C)C)C(=O)N[C@@H](CCC(N)=O)C(=O)N[C@@H](CC(C)C)C(=O)N[C@@H](CCSC)C(=O)N[C@@H](Cc1c[nH]cn1)C(=O)N[C@@H](CC(N)=O)C(=O)N[C@@H](CC(C)C)C(=O)NCC(=O)N[C@@H](CCCCN)C(=O)N[C@@H](Cc1c[nH]cn1)C(=O)N[C@@H](CC(C)C)C(=O)N[C@@H](CC(N)=O)C(=O)N[C@@H](CC1CCCCC1)C(=O)N[C@@H](CCSC)C(=O)N[C@@H](CCCNC(=N)N)C(=O)N[C@@H](CCCNC(=N)N)C(=O)N[C@H](C(=O)N[C@@H](CCC(=O)O)C(=O)N[C@@H](Cc1c[nH]c2ccccc12)C(=O)N[C@@H](CC(C)C)C(=O)N[C@@H](CCCNC(=N)N)C(=O)N[C@@H](CCCCN)C(=O)N[C@@H](CCCCN)C(=O)N[C@@H](CC(C)C)C(=O)N[C@@H](CCC(N)=O)C(=O)N[C@@H](CC(=O)O)C(=O)N[C@H](C(N)=O)C(C)C)C(C)C
As to B1, the half-inhibitory concentration (IC50) with PTHR-delNt (human) was 179 nM; with wild-type human PTHR [3], 112 nM. For the same molecule, the figures for the fold change in binding affinity vs [Ala^1,Arg^19]PTH(1-31)NH2 with PTHR-delNt (human) and with wild-type human PTHR [2] were under 3 fold and at most 6 fold, respectively.

B2: PTH(1-31)NH2 Arg^20→PipGly (peptide)
peptide: SVSEIQLMHNLGKHLNSME[Gly(1-amidinopiperidin-4-yl)]VEWLRKKLQDV-NH2
modifications: N-terminus assumed
SMILES: CC[C@H](C)[C@H](NC(=O)[C@H](CCC(=O)O)NC(=O)[C@H](CO)NC(=O)[C@@H](NC(=O)[C@@H](N)CO)C(C)C)C(=O)N[C@@H](CCC(N)=O)C(=O)N[C@@H](CC(C)C)C(=O)N[C@@H](CCSC)C(=O)N[C@@H](Cc1c[nH]cn1)C(=O)N[C@@H](CC(N)=O)C(=O)N[C@@H](CC(C)C)C(=O)NCC(=O)N[C@@H](CCCCN)C(=O)N[C@@H](Cc1c[nH]cn1)C(=O)N[C@@H](CC(C)C)C(=O)N[C@@H](CC(N)=O)C(=O)N[C@@H](CO)C(=O)N[C@@H](CCSC)C(=O)N[C@@H](CCC(=O)O)C(=O)N[C@H](C(=O)N[C@H](C(=O)N[C@@H](CCC(=O)O)C(=O)N[C@@H](Cc1c[nH]c2ccccc12)C(=O)N[C@@H](CC(C)C)C(=O)N[C@@H](CCCNC(=N)N)C(=O)N[C@@H](CCCCN)C(=O)N[C@@H](CCCCN)C(=O)N[C@@H](CC(C)C)C(=O)N[C@@H](CCC(N)=O)C(=O)N[C@@H](CC(=O)O)C(=O)N[C@H](C(N)=O)C(C)C)C(C)C)C1CCN(C(=N)N)CC1
As to B2, in the test with PTHR-delNt (human), the IC50 was 6600 nM and the fold difference of IC50 from PTH(1-31)NH2 is under 4 fold. In the test with wild-type human PTHR [1], the IC50 came out at 14100 nM. Besides, in the test with wild-type human PTHR [2], the “fold reduction … vs PTH(1-31)NH2” value was about 200 fold.

B3: PTH(1-31)NH2 Arg^20→Nle (peptide)
peptide: SVSEIQLMHNLGKHLNSME[Nle]VEWLRKKLQDV-NH2
modifications: N-terminus assumed
SMILES: CCCC[C@H](NC(=O)[C@H](CCC(=O)O)NC(=O)[C@H](CCSC)NC(=O)[C@H](CO)NC(=O)[C@H](CC(N)=O)NC(=O)[C@H](CC(C)C)NC(=O)[C@H](Cc1c[nH]cn1)NC(=O)[C@H](CCCCN)NC(=O)CNC(=O)[C@H](CC(C)C)NC(=O)[C@H](CC(N)=O)NC(=O)[C@H](Cc1c[nH]cn1)NC(=O)[C@H](CCSC)NC(=O)[C@H](CC(C)C)NC(=O)[C@H](CCC(N)=O)NC(=O)[C@@H](NC(=O)[C@H](CCC(=O)O)NC(=O)[C@H](CO)NC(=O)[C@@H](NC(=O)[C@@H](N)CO)C(C)C)[C@@H](C)CC)C(=O)N[C@H](C(=O)N[C@@H](CCC(=O)O)C(=O)N[C@@H](Cc1c[nH]c2ccccc12)C(=O)N[C@@H](CC(C)C)C(=O)N[C@@H](CCCNC(=N)N)C(=O)N[C@@H](CCCCN)C(=O)N[C@@H](CCCCN)C(=O)N[C@@H](CC(C)C)C(=O)N[C@@H](CCC(N)=O)C(=O)N[C@@H](CC(=O)O)C(=O)N[C@H](C(N)=O)C(C)C)C(C)C
As for B3, the results for the 50% inhibitory concentration (IC50) with PTHR-delNt (human) and in the test with wild-type human PTHR [1] were 10700 nM and 15400 nM, respectively. Also, in the test with PTHR-delNt (human), the fold difference of IC50 from PTH(1-31)NH2 was under 4 fold. For the same molecule, the “fold reduction … vs PTH(1-31)NH2” value with wild-type human PTHR [2] was about 200 fold.

In the test with PTHR-delNt (human), SVSEIQLMHNLGKHLNSMEQVEWLRKKLQDV-NH2 [PTH(1-31)NH2 Arg^20→Gln] had an IC50 of 10300 nM and a fold difference of IC50 from PTH(1-31)NH2 of under 4 fold. In the test with wild-type human PTHR [1], the 50% inhibitory concentration (IC50) is over 10000 nM.

Consider SVSEIQLMHNLGKHLNSMRRVAWLRKKLQDV-NH2 [PTH(1-31)NH2 Glu^19,22→Arg,Ala], for which the values for the half-maximal inhibitory concentration (IC50) in the test with PTHR-delNt (human) and with wild-type human PTHR [1] were 360 nM and 54 nM, respectively.

In the test with PTHR-delNt (human), SVSEIQLMHNLGKHLNSMEEVEWLRKKLQDV-NH2 [PTH(1-31)NH2 Arg^20→Glu] came in with an IC50 of 14700 nM and a fold reduction in binding affinity vs PTH(1-31)NH2 of 4 fold. Moreover, the IC50 with wild-type human PTHR [1] is over 10000 nM.

Consider SVSEIQLMHNLGKHLNSMRRVEWLRKKLQDV-NH2 [PTH(1-31)NH2 Glu^19→Arg], for which the figures for the IC50 with PTHR-delNt (human) and with wild-type human PTHR [1] were 1230 nM and 42 nM, respectively. Also, the “fold enhancement in binding affinity vs PTH(1-31)NH2” value with wild-type human PTHR [2] was at most 2 fold.

Take AVSEIQLMHNLGKHLNSMRREEWLRKKLQDV-NH2 [[Ala^1,Arg^19]hPTH(1-31)NH2 Val^21→Glu]: the IC50 is 1620 nM with PTHR-delNt (human) and 447 nM with wild-type human PTHR [3]. Besides, the fold reduction in binding affinity vs [Ala^1,Arg^19]PTH(1-31)NH2 with PTHR-delNt (human) was determined as 4 fold; in the test with wild-type human PTHR [2] it was 12 fold.

As to AVSEIQLMHNLGKHLNSMRRVEWLREKLQDV-NH2 [[Ala^1,Arg^19]hPTH(1-31)NH2 Lys^26→Glu], the values for the IC50 in the test with PTHR-delNt (human) and in the test with wild-type human PTHR [3] were 832 nM and 60 nM, respectively.

With AVSEIQLMHNLGKHLNSMRRVEWLRKELQDV-NH2 [[Ala^1,Arg^19]hPTH(1-31)NH2 Lys^27→Glu], the values for the IC50 with PTHR-delNt (human) and in the test with wild-type human PTHR [3] were 1270 nM and 156 nM, respectively.

Take AVSEIQLMHNLGKHLNSMRRVEWLEKKLQDV-NH2 [[Ala^1,Arg^19]hPTH(1-31)NH2 Arg^25→Glu]: in the test with PTHR-delNt (human), the IC50 turned out to be 1630 nM and the fold reduction in binding affinity vs [Ala^1,Arg^19]PTH(1-31)NH2 was 4 fold. In addition, the IC50 with wild-type human PTHR [3] came to 189 nM.

Turning to SVSEIQLMHNLGKHLNSMEKVEWLRKKLQDV-NH2 [PTH(1-31)NH2 Arg^20→Lys], the IC50 in the test with PTHR-delNt (human) was 7100 nM; with wild-type human PTHR [1], over 10000 nM. The molecule further came in with a fold difference of IC50 from PTH(1-31)NH2 with PTHR-delNt (human) of under 4 fold.

As to SVSEIQLMHNLGKHLNSMARVAWLRKKLQDV-NH2 [PTH(1-31)NH2 Glu^19,22→Ala,Ala], the IC50 in the test with PTHR-delNt (human) is 619 nM; in the test with wild-type human PTHR [1] it was 49 nM.

In general, IC50 refers to the concentration that gives 50% inhibition.
